Tested on: iBBB (human iPSC-derived BBB)
Experiment: Aβ(1–40) / Aβ(1–42) transcytosis and paracellular permeability assay, iBBB (transwell)
Details: Cy3-labeled Aβ(1–40) added to the abluminal side, 20 nM, 37 °C, 1 h, fluorescence
Procedure: For iBBBs, iPSC-derived brain endothelial cells (iECs) were dissociated by Accutase, resuspended with hECSR1 supplemented with 10 μM Y27632 and then seeded onto a 24-well Matrigel-coated Transwell at a density of 10^6 cells per cm^2 to complete a confluent monolayer for 24 h. Afterwards, the iPCs, iASs or MEFs were seeded on top of the iEC monolayer culture at a density of 5 × 10^4 cells per cm^2. The iBBBs were further cultured for 12 or 14 days.
For analysis of bottom (apical) to top (basolateral) permeability, 500 μl of medium containing the fluorescent proteins was added to the lower chamber; for analysis of top to bottom permeability, 100 μl medium of the fluorescent proteins was added to the top chamber. Permeability assays were conducted at 37 °C for 1 h. Media from the bottom chamber or the top transwell insert were collected and analyzed by a fluorescence plate reader (Molecular Devices). The rationale for using the indicated final concentrations for each protein was that the levels of diffused or transcytosed proteins were within a detectable range via fluorescence.

Question: With “Aβ(1-40): Cy3-labeled amyloid beta (1–40) peptide used as fluorescent permeant at 20 nM in the BBB models” as the substance, how does the “increase of permeability in WT iBBB compared to iECs co-cultured with MEFs” value read?
Answer: 12%
